Reference: patent US20080219971A1 (VACCINEX, published 2008)
Positions count from the first letter of the chain named. In names and notes the source's numbering stands. Blank lines part the entries; values can stand above or below the binder they belong to.

Key:
Human CD100 [1] = biological target: T1, Human CD100 (human, UniProt Q92854 22-734, limits assumed); experiment: affinity testing, method and unit not printed in Example 10 (nM as in Table 3); mutant value, before the parentheses
T1 construct: also called SEMA4D; Hu CD100
T1 sequence (looked up): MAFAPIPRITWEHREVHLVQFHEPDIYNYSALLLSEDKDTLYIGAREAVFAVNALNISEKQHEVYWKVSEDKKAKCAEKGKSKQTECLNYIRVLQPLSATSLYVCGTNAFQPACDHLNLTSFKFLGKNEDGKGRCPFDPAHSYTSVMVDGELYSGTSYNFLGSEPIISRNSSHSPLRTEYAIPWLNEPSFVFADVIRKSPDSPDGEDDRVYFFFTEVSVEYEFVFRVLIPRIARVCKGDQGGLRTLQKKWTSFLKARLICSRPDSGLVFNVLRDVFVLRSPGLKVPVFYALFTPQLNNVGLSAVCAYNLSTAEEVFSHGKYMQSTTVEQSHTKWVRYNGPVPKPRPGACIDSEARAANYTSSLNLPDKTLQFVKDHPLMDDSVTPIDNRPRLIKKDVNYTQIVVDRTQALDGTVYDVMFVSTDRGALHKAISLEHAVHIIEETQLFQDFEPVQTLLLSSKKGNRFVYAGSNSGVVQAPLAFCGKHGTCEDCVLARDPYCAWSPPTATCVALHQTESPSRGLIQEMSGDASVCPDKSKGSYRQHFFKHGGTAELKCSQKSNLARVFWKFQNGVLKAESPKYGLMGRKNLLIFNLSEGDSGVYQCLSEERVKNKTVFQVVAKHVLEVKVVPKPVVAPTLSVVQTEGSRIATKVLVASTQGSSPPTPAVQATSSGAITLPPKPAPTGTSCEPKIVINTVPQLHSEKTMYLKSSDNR

Human CD100 [2] = biological target: T1, Human CD100; experiment: affinity testing, method and unit not printed in Example 10 (nM as in Table 3)

B1: MAb 2117 (antibody, V domains shown)
VH: QVQLVQSGAEVKKPGSSVKVSCKASGYTFTDYYMDWVRQAPGQGLEWMGRVNPYHGGATYNQKFKGRVTITADKSTSTAYMELSSLRSEDTAVYYCAREENSYTGYYGMDYWGQGTLVTVSS
VL: DIVMTQSPLSLPVSPGEPATINCKSSQSLFNSGNQKNYLAWYLQKPGQPPKLLIYGASTRESGVPDRFSGSGSGTDFTLTISSLQAEDVAVYYCQNDHTYPYTFGQGTKLEIK
notes: H1651 mutant VH combined with L284; also called H1651 D104T with L284
Kd (Human CD100 [1]): 0.52 nM

B3: MAb 2275 (antibody, V domains shown)
VH: B1 VH with Q6A, G57F, T104D
VL: B1 VL
notes: Double mutant of H1651 with L284; also called H1651 Q6A G57F with L284
Kd (Human CD100 [2]): 0.09 nM

B4: MAb 2125 (antibody, V domains shown)
VH: B1 VH with E100D, T104D
VL: B1 VL
notes: H1651 mutant VH combined with L284; also called H1651 E100D with L284
Kd (Human CD100 [1]): 0.66 nM

B5: MAb 2144 (antibody, V domains shown)
VH: B1 VH with Q6A, T104D
VL: B1 VL
notes: H1651 mutant VH combined with L284; also called H1651 Q6A with L284
Kd (Human CD100 [1]): 0.43 nM

B7: MAb 2202 (antibody, V domains shown)
VH: B1 VH with G57F, T104D
VL: B1 VL
notes: H1651 mutant VH combined with L284; also called H1651 G57F with L284
Kd (Human CD100 [1]): 0.06 nM

B8: MAb 2139 (antibody, V domains shown)
VH: B1 VH with K23T, T104D
VL: B1 VL
notes: H1651 mutant VH combined with L284; also called H1651 K23T with L284
Kd (Human CD100 [1]): 0.61 nM

B9: MAb 2163 (antibody, V domains shown)
VH: B1 VH with D31K, T104D
VL: B1 VL
notes: H1651 mutant VH combined with L284; also called H1651 D31K with L284
Kd (Human CD100 [1]): 0.06 nM

B18: MAb 2274 (antibody, V domains shown)
VH: B1 VH with Q6A, D31K, T104D
VL: B1 VL
notes: Double mutant of H1651 with L284; also called H1651 Q6A D31K with L284
Kd (Human CD100 [2]): 0.1 nM

Other lines, results leading:

Kd (Human CD100 [2]): 0.1 nM
B2: MAb 2285 (antibody, V domains shown)
VH: B1 VH with K23T, Y60V, T104D
VL: B1 VL
notes: Double mutant of H1651 with L284; also called H1651 K23T Y60V with L284

Kd (Human CD100 [2]): 0.09 nM
B6: MAb 2277 (antibody, V domains shown)
VH: B1 VH with Q6A, T59F, T104D
VL: B1 VL
notes: Double mutant of H1651 with L284; also called H1651 Q6A T59F with L284

Kd (Human CD100 [2]): 0.09 nM
B10: MAb 2281 (antibody, V domains shown)
VH: B1 VH with K23T, G57F, T104D
VL: B1 VL
notes: Double mutant of H1651 with L284; also called H1651 K23T G57F with L284

Kd (Human CD100 [2]): 0.24 nM
B11: MAb 2284 (antibody, V domains shown)
VH: B1 VH with K23T, Y60F, T104D
VL: B1 VL
notes: Double mutant of H1651 with L284; also called H1651 K23T Y60F with L284

Kd (Human CD100 [2]): 0.13 nM
B12: MAb 2280 (antibody, V domains shown)
VH: B1 VH with K23T, D31K, T104D
VL: B1 VL
notes: Double mutant of H1651 with L284; also called H1651 K23T D31K with L284

Kd (Human CD100 [2]): 0.09 nM
B13: MAb 2282 (antibody, V domains shown)
VH: B1 VH with K23T, G57Y, T104D
VL: B1 VL
notes: Double mutant of H1651 with L284; also called H1651 K23T G57Y with L284

Kd (Human CD100 [2]): 0.11 nM
B14: MAb 2278 (antibody, V domains shown)
VH: B1 VH with Q6A, Y60F, T104D
VL: B1 VL
notes: Double mutant of H1651 with L284; also called H1651 Q6A Y60F with L284

Kd (Human CD100 [2]): 0.14 nM
B15: MAb 2279 (antibody, V domains shown)
VH: B1 VH with Q6A, Y60V, T104D
VL: B1 VL
notes: Double mutant of H1651 with L284; also called H1651 Q6A Y60V with L284

Kd (Human CD100 [2]): 0.09 nM
B16: MAb 2276 (antibody, V domains shown)
VH: B1 VH with Q6A, G57Y, T104D
VL: B1 VL
notes: Double mutant of H1651 with L284; also called H1651 Q6A G57Y with L284

Kd (Human CD100 [2]): 0.13 nM
B17: MAb 2283 (antibody, V domains shown)
VH: B1 VH with K23T, T59F, T104D
VL: B1 VL
notes: Double mutant of H1651 with L284; also called H1651 K23T T59F with L284
